Laboratory results: publication PMC9545174 (2022)

Target: wildtype SARS-CoV-2 RBD Protein (SARS-CoV-2, UniProt P0DTC2 319-541)
Assay: SPR

B1: 11-2G (antibody, V domains shown)
VH: QVQLQQAGPGLVKPSQTLSLTCAISGDSVSNNSAIWNWIRQSPSRGLEWLGRTYYRSKWYNDYAVSVSSRITINPDTSKNQFSLQLNSVTPEDTAVYYCARVDILTGYSFDYWGQGTLVTVSS
VL: EIVLTQSPGTLSLSPGERATLSCRASQSVSSSFLAWYQQKPGQAPRFLIYGESYRATGIPDRFSGSGSGTDFTLTISRLEPEDFAVYYCQQYGSSLTFGGGTKVEIK
koff: 0.000568 s⁻¹

B2: 18-4A (antibody, V domains shown)
VH: QVQLQQSGPGLVKPSQTLSLTCAISGDSVSNNSAAWNWIRQSPSRGLEWLGRTYYRSKWYNDYAVSVSSRITINPDTSKNQFSLQLNSVTPEDTAVYYCAREGALLWFGEGAFDYWGQGTLVTVSS
VL: EIVLTQSPGTLSLSPGERATLSCRASHIVSSSYLAWYQQKPGQAPRFLIYGASSRATGIPDRFSGSGSGTDFTLTISRLEPEDFAVYYCQQYAGSPFTFGPGTKVDIK
koff: 0.000134 s⁻¹
